These results are taken from paper PMC3519907 (PLoS Biology, 2012).

This series concerns the molecule itself. In words: crystal structure; ΔNC-Fab complex 10-20 mg/mL, 25%-35% PEG400, 100 mM Ca-acetate or 300 mM KCl, pH 8.5-9.5, 22°C; dataset refined to 2.5 Å.

B1: ΔNC CLC-ec1 (domain or fragment, Escherichia coli, UniProt P37019 1-460, looked up)
chain: MRRRQLIRQLLERDKTPLAILFMAAVVGTLVGLAAVAFDKGVAWLQNQRMGALVHTADNYPLLLTVAFLCSAVLAMFGYFLVRKYAPEAGGSGIPEIEGALEDQRPVRWWRVLPVKFFGGLGTLGGGMVLGREGPTVQIGGNIGRMVLDIFRLKGDEARHTLLATGAAAGLAAAFNAPLAGILFIIEEMRPQFRYTLISIKAVFIGVIMSTIMYRIFNHEVALIDVGKLSDAPLNTLWLYLILGIIFGIFGPIFNKWVLGMQDLLHRVHGGNITKWVLMGGAIGGLCGLLGFVAPATSGGGFNLIPIATAGNFSMGMLVFIFVARVITTLLCFSSGAPGGIFAPMLALGTVLGTAFGMVAVELFPQYHLEAGTFAIAGMGALLAASIRAPLTGIILVLEMTDNYQLILPMIITGLGATLLAQFTGGKPLYSAILARTLAKQEAEQ
notes: CLC-ec1, Cl-/H+ antiporter of Escherichia coli; Homodimer in the crystal (chains A and B); also called trimmed construct; source: E. coli, purified in decylmaltoside (His-tag removed, Superdex 200 gel filtration)
Turning to B1, the binding result is on record as “binds”.
